Measurements from patent publication US20040248196A1 (COMMONWEALTH SCIENTIFIC AND INDUSTRIAL RESEARCH ORGANISATION, published 2004).

Key:
M 2-EGFR E 21A [1] = target: T1, M 2-EGFR E 21A (human, UniProt P00533 25-1210); test: Scatchard plot (B/F specific against Bound) of 125I-EGF binding to BaF/3 cells expressing E21A EGFR, cold ligand titration, fitted with Radlig; second (low affinity) of two sites
T1 construct: whole, on cells; Transiently expressed in 293 cells and stably expressed in BaF/3 cells; also called Glu 21Ala; not shown: N-terminal FLAG tag

[2] = target: T2, M 2-EGFR (wild-type N-terminus FLAG-tagged EGF receptor) (human, UniProt P00533 25-1210); test: Scatchard plot (B/F specific against Bound) of 125I-EGF binding to BaF/3 cells expressing wt EGFR, cold ligand titration, fitted with Radlig; second (low affinity) of two sites
T2 construct: whole, on cells; Stably expressed on BaF/3 cells; also called wt EGFR; wild type EGFR; not shown: N-terminal FLAG tag

M 2-EGFR E 21A [3] = target: T1, M 2-EGFR E 21A; test: Scatchard plot (B/F specific against Bound) of 125I-EGF binding to BaF/3 cells expressing E21A EGFR, cold ligand titration, fitted with Radlig; first (high affinity) of two sites
Procedure: This was determined in total cell lysates by sequential immunoblotting with anti-phosphotyrosine (top) or anti-EGFR (bottom) antibodies. […] Cross-linking of the EGFR via the extracellular portion was performed at 37° C. to maximize dimer yield. Samples were analyzed by SDS-PAGE on 3-8% gradient gels and immunoblotting with anti-EGFR antibodies.
The isolation and characterisation of stably transfected cell lines expressing wild-type and mutant EGFRs was performed using the II3-dependent murine hemopoietic lineage BaF/3 (Walker et al, 1998, Growth Factors 16, 53-67). Expression vectors containing the appropriate EGFR constructs were transfected individually by electroporation using a Gene Pulser (BioRad) according to manufacturer's instructions. Neomycin-resistant pools were generated by selection in G 418, and cloned by limiting dilution to obtain stable cell lines.

[4] = target: T2, M 2-EGFR (wild-type N-terminus …); test: Scatchard plot (B/F specific against Bound) of 125I-EGF binding to BaF/3 cells expressing wt EGFR, cold ligand titration, fitted with Radlig; first (high affinity) of two sites

B1: iodinated murine EGF (ligand, UniProt P01132 977-1029, looked up)
chain: NSYPGCPSSYDGYCLNGGVCMHIESLDSYTCNCVIGYSGDRCQTRDLRWWELR
modifications: 125I-iodinated (site not stated)
notes: mature; Unlabelled EGF was used for the cold titration
B1 was tested, and the Kd (M 2-EGFR E 21A [1]) was 1.1 nM, the Kd [2] was 1.1 nM and the Kd (M 2-EGFR E 21A [3]) was 0.045 nM. It also gave a Kd [4] of 0.039 nM.
